The source of these data is PMC6706451, “Crystal structure and substrate-induced activation of ADAMTS13” (Nature Communications, 2019).

Positions count from the first letter of the chain named.

For one experiment, the target named is VWF96-MP (human, UniProt P04275 1573-1668, L1603N). Put plainly: ELISA.
Another experiment has as its target VWF96-Spacer (human, UniProt P04275 1573-1668, L1664T | V1665N | L1666Q). Nature of the experiment: ELISA. A general note: An ELISA detects its analyte on a solid surface through an enzyme-linked reagent.
A further experiment has as its target T1, ADAMTS13 (human, UniProt Q76LX8 75-1427).
T1 construct: ADAMTS13, recombinant; holds TSP2-4 (detected with an anti-ADAMTS13 TSP2-4 polyclonal antibody); The introduction says the short propeptide is removed before secretion; also called recombinant ADAMTS13
T1 sequence (looked up): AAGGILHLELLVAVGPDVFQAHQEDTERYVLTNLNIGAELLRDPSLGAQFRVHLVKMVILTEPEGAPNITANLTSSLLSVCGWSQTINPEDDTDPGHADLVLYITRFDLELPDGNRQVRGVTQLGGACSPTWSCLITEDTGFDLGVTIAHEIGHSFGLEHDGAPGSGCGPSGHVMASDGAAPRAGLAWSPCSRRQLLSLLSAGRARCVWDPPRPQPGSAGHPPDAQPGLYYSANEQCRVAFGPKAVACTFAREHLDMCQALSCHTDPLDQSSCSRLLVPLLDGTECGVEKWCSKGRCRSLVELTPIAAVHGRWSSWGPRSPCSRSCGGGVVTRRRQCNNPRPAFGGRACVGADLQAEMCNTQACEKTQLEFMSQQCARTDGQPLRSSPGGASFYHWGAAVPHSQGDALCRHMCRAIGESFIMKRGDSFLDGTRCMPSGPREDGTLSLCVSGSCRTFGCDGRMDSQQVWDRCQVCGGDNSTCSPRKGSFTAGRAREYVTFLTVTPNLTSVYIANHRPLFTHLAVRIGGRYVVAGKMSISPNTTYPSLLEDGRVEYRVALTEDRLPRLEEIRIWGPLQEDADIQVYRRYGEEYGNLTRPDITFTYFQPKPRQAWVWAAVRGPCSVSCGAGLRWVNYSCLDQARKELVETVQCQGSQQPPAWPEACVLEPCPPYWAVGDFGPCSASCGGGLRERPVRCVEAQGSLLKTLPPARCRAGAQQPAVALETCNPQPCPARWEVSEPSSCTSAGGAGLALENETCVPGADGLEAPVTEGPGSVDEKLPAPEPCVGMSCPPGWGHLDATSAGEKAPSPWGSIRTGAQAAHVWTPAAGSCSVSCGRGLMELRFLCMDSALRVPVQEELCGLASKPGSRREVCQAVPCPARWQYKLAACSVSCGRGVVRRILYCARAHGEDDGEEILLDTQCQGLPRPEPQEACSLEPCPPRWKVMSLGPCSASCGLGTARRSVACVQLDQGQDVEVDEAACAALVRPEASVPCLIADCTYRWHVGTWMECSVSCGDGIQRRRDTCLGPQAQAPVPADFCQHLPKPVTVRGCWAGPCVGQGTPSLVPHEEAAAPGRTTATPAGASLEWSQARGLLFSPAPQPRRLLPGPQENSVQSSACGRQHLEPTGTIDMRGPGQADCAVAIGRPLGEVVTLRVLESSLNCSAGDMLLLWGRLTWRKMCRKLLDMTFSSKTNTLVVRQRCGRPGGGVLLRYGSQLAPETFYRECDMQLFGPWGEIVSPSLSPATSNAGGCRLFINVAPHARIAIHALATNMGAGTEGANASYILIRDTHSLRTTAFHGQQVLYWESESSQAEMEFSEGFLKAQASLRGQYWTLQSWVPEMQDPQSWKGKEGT
Put plainly: ELISA; plate binding: 100 nM VWF96 or variant adsorbed on 96-well plates (50 mM sodium bicarbonate pH 9.6, overnight, 4 °C); 0-600 nM ADAMTS13 in PBS/1% BSA/80 mM EDTA, room temperature, 1.5 h (legend: 1 h); detected with biotinylated anti-ADAMTS13 TSP2-4 polyclonal antibody; one-site fit; apparent KD. To be noted: one partner purified.

The target in the next experiment is T2, ADAMTS13 MDTCS(E225Q) (human, UniProt Q76LX8 78-682, E225Q, N-linked glycans at Asn142, Asn146, Asn552, Asn579, Asn614, Asn667 and an O-linked glycan on Ser399 (seen in the structure)).
T2 construct: Drosophila BiP signal cleaved off to give the native N terminus Gly78; Vector pMT-BiP-PURO; also called MDTCS(E225Q) active-site mutant; not shown: 6xHis, C-terminal, kept
T2 sequence (looked up): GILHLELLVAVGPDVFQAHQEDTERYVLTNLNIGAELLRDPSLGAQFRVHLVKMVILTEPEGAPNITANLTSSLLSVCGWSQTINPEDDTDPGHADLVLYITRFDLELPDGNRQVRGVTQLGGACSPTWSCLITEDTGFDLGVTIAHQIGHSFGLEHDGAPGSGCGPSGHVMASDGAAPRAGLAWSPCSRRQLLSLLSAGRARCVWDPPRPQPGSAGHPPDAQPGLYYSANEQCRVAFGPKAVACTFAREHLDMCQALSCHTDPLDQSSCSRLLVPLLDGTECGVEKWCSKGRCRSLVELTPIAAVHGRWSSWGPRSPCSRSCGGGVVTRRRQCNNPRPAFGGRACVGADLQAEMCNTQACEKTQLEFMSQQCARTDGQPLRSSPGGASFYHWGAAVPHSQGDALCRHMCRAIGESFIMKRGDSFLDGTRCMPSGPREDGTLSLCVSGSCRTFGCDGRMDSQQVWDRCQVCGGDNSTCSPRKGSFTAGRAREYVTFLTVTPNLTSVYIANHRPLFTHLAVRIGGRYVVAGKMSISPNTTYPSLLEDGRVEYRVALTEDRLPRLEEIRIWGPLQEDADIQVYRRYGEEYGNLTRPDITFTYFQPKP
Nature of the experiment: ITC; 27 μM MDTCS(E225Q) in the cell, injections of 279 μM tag-free VWF73; 20 mM HEPES pH 7.5, 150 mM NaCl, 5 mM CaCl2; 25 °C; mean of four experiments. Conditions: both partners purified.

B1: ADAMTS13 (enzyme)
chain: T1 sequence (looked up)
Turning to B1, the Kd in the experiment with VWF96-MP came out at 65 nM; with VWF96-Spacer it was 241 nM.

B2: VWF96 (VWF A2 domain fragment Gly1573-Arg1668 with N-terminal 6xHis-SUMO tag and C-terminal HSV-6xHis tag) (domain or fragment)
chain: GNRTNTGLALRYLSDHSFLVSQGDREQAPNLVYMVTGNPASDEIKRLPGDIQVVPIGVGPNANVQELERIGWPNAPILIQDFETLPREAPDLVLQR
notes: von Willebrand factor, A2 domain fragment, residues Gly1573-Arg1668 (96 amino acids); SUMO tag is a derivative of yeast Smt3 (13 kDa, Invitrogen); Vector pET25b(+); About 32 kDa with tags; also called wild-type VWF96; source: E. coli BL21 (DE3), purified (Ni2+ HiTrap Chelating HP, Capto Q ImpRes); not shown: 6xHis-SUMO, N-terminal, kept; HSV-6xHis, C-terminal, kept
Regarding B2, the Kd with ADAMTS13 came out at 40 nM.

B3: VWF96-Dis (domain or fragment, human, UniProt P04275 1573-1668, looked up)
chain: B2 chain with D42A, I44Q, K45E, R46E, D50T
notes: Variant of the VWF96 vector; source: E. coli BL21 (DE3), purified (Ni2+ HiTrap Chelating HP, Capto Q ImpRes); not shown: 6xHis-SUMO, N-terminal, kept; HSV-6xHis, C-terminal, kept
For B3, the Kd with ADAMTS13 amounted to 615 nM.

B4: VWF96-Cys (domain or fragment, human, UniProt P04275 1573-1668, looked up)
chain: B2 chain with I70Q, W72Y, A75S, I77Q, L78Q, I79Q
notes: as for B3
In the case of B4, in the experiment with ADAMTS13, the Kd worked out at 632 nM.

B5: VWF73 (tag-free VWF A2 domain fragment Asp1596-Arg1668) (domain or fragment)
chain: DREQAPNLVYMVTGNPASDEIKRLPGDIQVVPIGVGPNANVQELERIGWPNAPILIQDFETLPREAPDLVLQR
notes: von Willebrand factor, human, A2 domain fragment, residues Asp1596-Arg1668 (73 amino acids); Vector pET-SUMO; also called tag-free VWF73; source: E. coli One Shot BL21 Star (DE3), purified as VWF96; His-SUMO tag removed with SUMO protease-1, passed over Ni2+ column; not shown: 6xHis-SUMO, N-terminal, cleaved
In the case of B5, in the experiment with ADAMTS13 MDTCS(E225Q), the Kd is 450 nM.

B6: VWF87(ΔSpacer) (domain or fragment)
chain: GNRTNTGLALRYLSDHSFLVSQGDREQAPNLVYMVTGNPASDEIKRLPGDIQVVPIGVGPNANVQELERIGWPNAPILIQDFETLPR
notes: von Willebrand factor, A2 domain fragment: VWF96 (Gly1573-Arg1668) with residues Glu1660-Arg1668 deleted, 87 amino acids; Variant of the VWF96 vector; the C-terminal HSV-6xHis tag follows residue 1659; source: E. coli BL21 (DE3), purified (Ni2+ HiTrap Chelating HP, Capto Q ImpRes); not shown: 6xHis-SUMO, N-terminal, kept; HSV-6xHis, C-terminal, kept
Consider B6, for which the Kd in the experiment with ADAMTS13 turned out to be 475 nM.
